Laboratory results taken from publication PMC12552968, “The RING-finger domain of Arabidopsis RMR functions as an E3 ligase essential for post-Golgi trafficking” (The Journal of Biological Chemistry, 2025).

Molecular target: T1, Arabidopsis E2 ubiquitin-conjugating enzyme AtUbc30 (Arabidopsis, UniProt Q9FKT3 1-148)
T1 construct: AtUbc30, Arabidopsis E2 ubiquitin-conjugating enzyme, At5g56150; source: E. coli SoluBL21, purified (GSTrap Sepharose, PreScission cleavage, gel filtration)
Assay: pull-down; AtUbc30 (50 to 60 μM) with equimolar GST, wildtype or I234Y GST-AtRMR1-RING in the presence of GSTrap Sepharose; 30 mM Tris pH 7.5, 150 mM NaCl, 2 mM DTT; 4 h at 4 °C; eluted with 20 mM reduced glutathione; 15% SDS-PAGE, Coomassie blue
Conditions: both partners purified

T1 sequence (Q9FKT3 whole entry): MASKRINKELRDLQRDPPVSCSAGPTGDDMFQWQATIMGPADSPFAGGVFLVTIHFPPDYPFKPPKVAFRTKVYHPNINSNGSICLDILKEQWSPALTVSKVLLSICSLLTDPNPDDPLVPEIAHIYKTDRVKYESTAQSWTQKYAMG

B1: GST-tagged RING-H2 domain of Arabidopsis RMR isoform-1 (GST-AtRMR1-RING), wildtype (domain or fragment, UniProt Q9M622 206-283, looked up)
chain: RLDAKLVHTLPCFTFTDSAHHKAGETCAICLEDYRFGESLRLLPCQHAFHLNCIDSWLTKWGTSCPVCKHDIRTETMS
notes: AtRMR1 (receptor-homology-transmembrane-RING-H2 protein 1), Arabidopsis, At5g66160, RING-H2 domain, residues 206-283; The methods tell only the purification of the form with the GST tag cleaved; also called E3; source: E. coli SoluBL21 (pGEX-6p-1), recombinant
  binding result: binds
